Substrate in this series: NCc1ccccc1
In words: purified protein. The class given is biochemical, Homo sapiens. The conditions noted are these: 30 μM MAO-B [sic], 50 mM HEPES pH 7.5, 0.5% Triton X-100, 25 °C.

Consider 1 protein from publication PMC10952593, “Synthetic cannabinoid receptor agonists are monoamine oxidase‐A selective inhibitors” (The Febs Journal, 2023).

B1: MAO-B (Homo sapiens) (protein)
chain: SNKCDVVVVGGGISGMAAAKLLHDSGLNVVVLEARDRVGGRTYTLRNQKVKYVDLGGSYVGPTQNRILRLAKELGLETYKVNEVERLIHHVKGKSYPFRGPFPPVWNPITYLDHNNFWRTMDDMGREIPSDAPWKAPLAEEWDNMTMKELLDKLCWTESAKQLATLFVNLCVTAETHEVSALWFLWYVKQCGGTTRIISTTNGGQERKFVGGSGQVSERIMDLLGDRVKLERPVIYIDQTRENVLVETLNHEMYEAKYVISAIPPTLGMKIHFNPPLPMMRNQMITRVPLGSVIKCIVYYKEPFWRKKDYCGTMIIDGEEAPVAYTLDDTKPEGNYAAIMGFILAHKARKLARLTKEERLKKLCELYAKVLGSLEALEPVHYEEKNWCEEQYSGGCYTTYFPPGILTQYGRVLRQPVDRIYFAGTETATHWSGYMEGAVEAGERAAREILHAMGKIPEDEIWQSEPESVDVPAQPITTTFLERHLPSVPGLLRLIGLTTIFSATALGFLAHKRGLLVRV
notes: FAD enzyme; PDB 2V5Z was only the docking model
As to B1, the Km came to 140 ± 30 µM.

One may read the Km as the substrate concentration at which the rate is half of its maximum.
